From patent publication EP4813403A1 (Hangzhou Zhongmeihuadong Pharmaceutical Co., Ltd., dated 2025)

Biological target: T1, human GIP receptor (human, UniProt P48546 22-466)
T1 sequence (looked up): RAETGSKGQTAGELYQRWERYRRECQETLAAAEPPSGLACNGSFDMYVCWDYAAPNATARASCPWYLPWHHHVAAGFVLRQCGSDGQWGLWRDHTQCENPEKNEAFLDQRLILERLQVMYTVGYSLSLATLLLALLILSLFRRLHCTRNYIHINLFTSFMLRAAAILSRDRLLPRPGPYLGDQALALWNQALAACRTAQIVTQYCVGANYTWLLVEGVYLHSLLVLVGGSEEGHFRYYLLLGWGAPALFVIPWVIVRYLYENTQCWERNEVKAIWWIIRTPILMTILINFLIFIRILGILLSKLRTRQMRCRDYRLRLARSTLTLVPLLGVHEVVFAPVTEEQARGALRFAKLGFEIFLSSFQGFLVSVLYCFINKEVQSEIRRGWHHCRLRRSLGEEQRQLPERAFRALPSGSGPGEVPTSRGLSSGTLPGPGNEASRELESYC
Experiment: cell-based or functional assay

B1: P007 (peptide)
peptide: YXEGTXTSDYXIXLDKQAQAEFVKWLLKGGPSSGAPPPSK
modifications: Aib at 2; αMePhe at 6; Aib at 11; Aib at 13; K at position 24 ε-amino conjugated with ([2-(2-amino-ethoxy)-ethoxy]-acetyl)2-(γ-Glu)1-CO-(CH2)16-CO2H; C-terminal primary amide
Which “EC50 value (ratio: EC50 of endogenous ligand / EC50 of test compound), LANCE Ultra cAMP assay, HEK293/GIPR cells” value does the source give for B1 here?
Its value is 1.15 ratio.
